The values below come from IntAct's records for PubMed 12655004.

B1: U3 small nucleolar ribonucleoprotein protein IMP4 (Homo sapiens), Q96G21 (parent)
chain: MLRREARLRREYLYRKAREEAQRSAQERKERLRRALEENRLIPTELRREALALQGSLEFDDAGGEGVTSHVDDEYRWAGVEDPKVMITTSRDPSSRLKMFAKELKLVFPGAQRMNRGRHEVGALVRACKANGVTDLLVVHEHRGTPVGLIVSHLPFGPTAYFTLCNVVMRHDIPDLGTMSEAKPHLITHGFSSRLGKRVSDILRYLFPVPKDDSHRVITFANQDDYISFRHHVYKKTDHRNVELTEVGPRFELKLYMIRLGTLEQEATADVEWRWHPYTNTARKRVFLSTE
partner: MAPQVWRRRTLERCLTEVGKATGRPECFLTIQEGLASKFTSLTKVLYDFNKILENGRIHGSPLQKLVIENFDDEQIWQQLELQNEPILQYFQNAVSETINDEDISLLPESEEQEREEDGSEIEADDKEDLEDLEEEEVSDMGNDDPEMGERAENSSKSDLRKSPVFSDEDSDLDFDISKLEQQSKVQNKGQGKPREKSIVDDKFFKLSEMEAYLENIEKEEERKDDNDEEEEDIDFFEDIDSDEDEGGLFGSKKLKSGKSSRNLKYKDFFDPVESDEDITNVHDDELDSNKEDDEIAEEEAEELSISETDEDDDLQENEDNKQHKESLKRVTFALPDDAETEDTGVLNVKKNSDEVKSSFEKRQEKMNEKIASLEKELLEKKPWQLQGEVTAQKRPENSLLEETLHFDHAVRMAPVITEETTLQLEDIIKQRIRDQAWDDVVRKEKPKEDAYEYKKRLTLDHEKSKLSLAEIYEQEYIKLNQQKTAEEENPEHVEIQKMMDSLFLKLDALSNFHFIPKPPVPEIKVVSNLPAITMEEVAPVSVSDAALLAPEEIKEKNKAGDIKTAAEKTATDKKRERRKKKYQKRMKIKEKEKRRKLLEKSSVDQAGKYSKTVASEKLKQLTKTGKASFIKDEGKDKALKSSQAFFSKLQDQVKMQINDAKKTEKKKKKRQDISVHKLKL

This experiment covers variants of B1. To be noted: with mpp10_human MPHOSPH10, O00566.
Consider T159A;F162A, for which the “effect of a mutation on the interaction” value is on record as “disrupting interaction strength”.
The result for E246A;R250A reads “disrupting interaction strength”.
